Laboratory results published in patent publication US20240238446.

Key:
[1] = molecular target: mouse C3b/iC3b deposited from mouse serum on LPS, P01027
Sequence of mouse C3b/iC3b deposited from mouse serum on LPS, P01027 (P01027 25-1663): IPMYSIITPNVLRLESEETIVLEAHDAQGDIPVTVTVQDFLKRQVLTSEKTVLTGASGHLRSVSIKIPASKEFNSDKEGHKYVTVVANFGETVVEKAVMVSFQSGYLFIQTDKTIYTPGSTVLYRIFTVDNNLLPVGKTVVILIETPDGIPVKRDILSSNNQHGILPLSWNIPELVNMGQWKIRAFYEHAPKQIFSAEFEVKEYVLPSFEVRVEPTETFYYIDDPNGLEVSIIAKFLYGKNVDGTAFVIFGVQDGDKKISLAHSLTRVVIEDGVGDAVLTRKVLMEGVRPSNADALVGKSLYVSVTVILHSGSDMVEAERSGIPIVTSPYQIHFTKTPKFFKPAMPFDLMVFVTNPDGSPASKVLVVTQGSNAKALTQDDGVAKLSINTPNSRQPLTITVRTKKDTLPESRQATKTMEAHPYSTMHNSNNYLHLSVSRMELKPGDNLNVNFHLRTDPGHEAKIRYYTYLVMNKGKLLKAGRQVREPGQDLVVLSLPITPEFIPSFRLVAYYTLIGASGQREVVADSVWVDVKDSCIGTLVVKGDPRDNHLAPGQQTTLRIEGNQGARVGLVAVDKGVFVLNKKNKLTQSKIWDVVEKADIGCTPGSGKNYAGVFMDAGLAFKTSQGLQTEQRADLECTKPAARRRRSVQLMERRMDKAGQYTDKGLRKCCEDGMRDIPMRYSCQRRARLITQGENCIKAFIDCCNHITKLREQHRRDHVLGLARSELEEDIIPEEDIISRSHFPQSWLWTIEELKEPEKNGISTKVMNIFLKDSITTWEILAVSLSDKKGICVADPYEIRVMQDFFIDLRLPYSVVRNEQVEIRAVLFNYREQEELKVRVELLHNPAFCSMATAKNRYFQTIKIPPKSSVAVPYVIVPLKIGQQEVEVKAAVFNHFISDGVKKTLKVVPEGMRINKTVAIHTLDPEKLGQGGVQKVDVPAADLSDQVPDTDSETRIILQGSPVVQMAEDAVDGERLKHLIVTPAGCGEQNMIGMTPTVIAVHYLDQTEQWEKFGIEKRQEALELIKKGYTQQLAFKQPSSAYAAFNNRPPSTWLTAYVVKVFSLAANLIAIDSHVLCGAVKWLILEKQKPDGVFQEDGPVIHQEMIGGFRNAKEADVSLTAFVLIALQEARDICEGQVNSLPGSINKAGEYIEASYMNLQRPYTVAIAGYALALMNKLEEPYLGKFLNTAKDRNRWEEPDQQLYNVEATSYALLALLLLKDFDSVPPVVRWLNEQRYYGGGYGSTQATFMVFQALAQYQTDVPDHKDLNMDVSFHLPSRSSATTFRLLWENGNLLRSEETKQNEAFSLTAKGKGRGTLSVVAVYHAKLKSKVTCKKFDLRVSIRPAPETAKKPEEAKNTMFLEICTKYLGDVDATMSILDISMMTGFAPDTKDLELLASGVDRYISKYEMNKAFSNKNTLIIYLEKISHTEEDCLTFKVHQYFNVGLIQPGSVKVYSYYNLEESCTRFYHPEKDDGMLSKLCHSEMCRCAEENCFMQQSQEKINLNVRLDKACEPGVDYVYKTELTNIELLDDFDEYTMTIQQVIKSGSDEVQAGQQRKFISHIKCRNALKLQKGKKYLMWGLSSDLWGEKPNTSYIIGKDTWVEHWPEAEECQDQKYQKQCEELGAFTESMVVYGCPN

Sequence of human C3b, P01024 (P01024 whole entry, looked up): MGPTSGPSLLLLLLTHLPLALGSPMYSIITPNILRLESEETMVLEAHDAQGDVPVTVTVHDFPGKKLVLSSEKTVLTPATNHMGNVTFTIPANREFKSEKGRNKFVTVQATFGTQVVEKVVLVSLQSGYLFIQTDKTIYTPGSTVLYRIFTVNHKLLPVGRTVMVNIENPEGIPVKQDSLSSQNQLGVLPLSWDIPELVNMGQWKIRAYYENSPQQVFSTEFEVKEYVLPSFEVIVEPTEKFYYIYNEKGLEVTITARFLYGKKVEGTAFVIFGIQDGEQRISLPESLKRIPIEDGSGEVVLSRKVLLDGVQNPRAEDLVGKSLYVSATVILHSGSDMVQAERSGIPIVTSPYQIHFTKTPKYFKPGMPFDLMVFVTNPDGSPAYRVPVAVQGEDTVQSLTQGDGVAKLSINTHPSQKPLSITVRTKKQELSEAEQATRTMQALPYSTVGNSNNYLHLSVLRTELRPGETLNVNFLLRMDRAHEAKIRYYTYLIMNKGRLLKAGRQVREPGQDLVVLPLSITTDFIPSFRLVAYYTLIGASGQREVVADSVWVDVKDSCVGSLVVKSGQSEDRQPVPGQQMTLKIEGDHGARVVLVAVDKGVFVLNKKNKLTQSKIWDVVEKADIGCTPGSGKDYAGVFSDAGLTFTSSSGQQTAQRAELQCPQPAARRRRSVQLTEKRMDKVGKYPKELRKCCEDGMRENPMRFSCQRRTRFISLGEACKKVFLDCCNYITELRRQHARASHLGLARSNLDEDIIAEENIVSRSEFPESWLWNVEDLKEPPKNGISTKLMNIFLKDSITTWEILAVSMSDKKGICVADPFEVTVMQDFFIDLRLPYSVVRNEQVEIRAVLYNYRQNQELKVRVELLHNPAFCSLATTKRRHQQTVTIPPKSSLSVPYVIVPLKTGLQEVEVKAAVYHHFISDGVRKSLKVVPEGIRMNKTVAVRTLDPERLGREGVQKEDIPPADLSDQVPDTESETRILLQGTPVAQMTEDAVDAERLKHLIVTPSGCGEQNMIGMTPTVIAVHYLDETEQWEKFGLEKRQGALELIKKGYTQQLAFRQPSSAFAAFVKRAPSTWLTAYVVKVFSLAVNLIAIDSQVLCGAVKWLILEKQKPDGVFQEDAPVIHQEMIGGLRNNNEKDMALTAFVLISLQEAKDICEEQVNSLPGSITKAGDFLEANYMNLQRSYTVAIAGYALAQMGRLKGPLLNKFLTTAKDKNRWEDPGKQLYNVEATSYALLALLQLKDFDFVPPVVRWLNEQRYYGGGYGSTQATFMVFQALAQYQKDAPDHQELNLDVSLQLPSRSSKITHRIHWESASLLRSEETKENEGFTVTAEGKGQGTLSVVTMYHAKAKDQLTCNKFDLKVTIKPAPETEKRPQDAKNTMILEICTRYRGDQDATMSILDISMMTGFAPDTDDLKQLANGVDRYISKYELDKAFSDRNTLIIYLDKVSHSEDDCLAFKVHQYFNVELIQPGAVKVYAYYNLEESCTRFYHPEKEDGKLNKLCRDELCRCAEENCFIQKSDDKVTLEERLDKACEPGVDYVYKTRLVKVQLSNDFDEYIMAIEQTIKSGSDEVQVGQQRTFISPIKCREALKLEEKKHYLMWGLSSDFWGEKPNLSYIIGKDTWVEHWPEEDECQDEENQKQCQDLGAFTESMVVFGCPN

B1: mouse Factor I in mouse serum (protein)
chain: RSPSASDLPQEELVDQKCLLQKYTHRSCNKVFCQPWQRCIEGTCICKLPYQCPRAGTPVCAMNGRSYPTYCHQKSFECLHPEIKFSHNGTCAAEGKFNVSLIYGRTKTEGLVQVKLVDQDERMFICKNSWSMAEANVACVDLGFPLGVRDIQGSFNISGNLHINDTECLHVHCRGVETSLAECAFTKRRTELSNGLAGVVCYKQDADFPTSLSFQCVNGKHIPQEKACNGVNDCGDQSDELCCKGCRGNASLCKSGVCIPDQYKCNGEVDCITGEDESRCEEDRQQNIPKGLARSAQGEAEIETEETEMLTPGMDNERKRIKSLLPKLSCGVKRNTHTRRKRVIGGKPANVGDYPWQVAIKDGQRITCGGIYIGGCWILTAAHCVRPSRAHSYQVWTALLDWLKPNSQLGIQTVKRVIVHEKYNGATFQNDIALIEMKMHTGKKECELPNSVPACVPWSPYLFQPNDRCIISGWGRGKDNQKVYSLRWGEVDLIGNCSQFYPDRYYEKEMQCAGTRDGSIDACKGDSGGPLVCEDINNVTYVWGIVSWGENCGKPEFPGVYTRVANYFDWISYHVGRSLVSQHNV
For B1, the “in vitro C3b and iC3b cleavage assay (western blot with clone 9, generation of C3dg; human Factor H as cofactor, 30 minutes)” value (human C3b, P01024) was “more efficiently cleaved to C3dg within the incubation period in the AAV_FI medium and AAV_FI high group”, the “C3b/iC3b deposition on LPS-coated plate, reduction, serum of AAV high FI group” value [1] was “by 50% in the AAV % high FI group” and the “C3b/iC3b deposition on LPS-coated plate, reduction, serum of AAV_low FI group” value [1] was “reduced by 11% in the AAV_low FI”. The “C3b/iC3b deposition on LPS-coated plate, reduction, serum of AAV_medium FI group” value [1] was “by 38% in the AAV_medium FI”.
